Data on three molecules can be found in PMC11742427, “Structural basis for metal ion transport by the human SLC11 proteins DMT1 and NRAMP1” (Nature Communications, 2025).

The target of experiment [1] is T1, human DMT1 (SLC11A2) (human, UniProt P49281-3 2-590, chemically biotinylated (EZ-Link NHS-PEG4-Biotinylation kit) for the SPR experiments).
T1 construct: human DMT1 (SLC11A2), UniProt P49281-3; Tags follow an HRV-3C site and were removed with HRV 3C protease; The same construct was used without biotin for the SEC of the complexes; source: HEK293S GnTI- cells, transient transfection, purified in DDM/CHS (StrepTactin, SEC); not shown: Myc, C-terminal, cleaved
T1 sequence: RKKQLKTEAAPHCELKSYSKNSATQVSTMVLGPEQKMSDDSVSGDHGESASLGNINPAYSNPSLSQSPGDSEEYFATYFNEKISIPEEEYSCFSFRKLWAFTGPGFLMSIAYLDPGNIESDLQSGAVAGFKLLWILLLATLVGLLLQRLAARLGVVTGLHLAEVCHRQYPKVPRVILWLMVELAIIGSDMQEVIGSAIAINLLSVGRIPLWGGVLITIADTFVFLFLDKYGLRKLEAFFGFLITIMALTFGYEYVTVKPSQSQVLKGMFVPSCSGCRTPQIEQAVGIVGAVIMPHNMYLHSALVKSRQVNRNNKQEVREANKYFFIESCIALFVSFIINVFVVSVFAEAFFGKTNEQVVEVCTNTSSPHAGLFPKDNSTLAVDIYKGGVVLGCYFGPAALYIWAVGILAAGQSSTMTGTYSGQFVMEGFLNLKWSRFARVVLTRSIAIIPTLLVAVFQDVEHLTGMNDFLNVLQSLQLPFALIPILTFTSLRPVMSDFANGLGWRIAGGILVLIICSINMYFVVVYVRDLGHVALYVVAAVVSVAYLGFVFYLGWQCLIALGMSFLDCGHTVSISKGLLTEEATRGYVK
Nature of the experiment: SPR; chemically biotinylated DMT1 or NRAMP1 immobilised on a SAD200M chip (about 900 RU); sybodies injected at 7.8-500 nM, 10 °C, 30 µl/min; 10 mM HEPES pH 7.4, 150 mM NaCl, 0.04% DDM, 0.004% CHS, 0.1% BSA; fit to a 1:1 binding model. The note with it: both partners purified. Background: SPR reads the build-up and loss of mass on a sensor chip optically.

Experiment [2] has as its target T2, human DMT1 (SLC11A2) (Homo sapiens, DMT1 isoform 3 (P49281-3), UniProt P49281-3, chemically biotinylated (EZ-Link NHS-PEG4-Biotinylation kit) for the SPR assay; not for cryo-EM).
T2 construct: human DMT1 (SLC11A2), UniProt identifier P49281-3, codon-optimised synthetic gene in pcDXC3MS; The C-terminal HRV-3C site was cut, so residues of the cleavage site are left on the C-terminus; One construct was used for SPR (biotinylated, immobilised) and cryo-EM; source: HEK293S GnTI- cells, transient transfection, purified in DDM/CHS (StrepTactin, HRV 3C cleavage, SEC); not shown: Myc, …
Nature of the experiment: SPR; chemically biotinylated DMT1 or NRAMP1 immobilised on a SAD200M chip (~900 RU); sybodies injected at 7.8-500 nM, 10 °C, 30 µl/min; 10 mM HEPES pH 7.4, 150 mM NaCl, 0.04% DDM, 0.004% CHS, 0.1% BSA; single-site binding model. The note with it: both partners purified.

As a reminder, the Kd is the free concentration of one partner at which half of the binding sites on the other are occupied at equilibrium, for simple one-to-one binding.

B1: sybody Sb1^DMT1 (VHH)
VHH: QVQLVESGGGLVQAGGSLRLSCAASGFPVSRSEMYWYRQAPGKEREWVAAIHSIGWNTRYADSVKGRFTISRDNAKNTVYLQMNSLKPEDTAVYYCNVKDAGWFWTNYDYWGQGTQVTVSA
notes: synthetic nanobody (sybody) selected against DMT1; the tags are surmised from the vector
Take B1: binding with human DMT1 (SLC11A2) [1] was characterised by a dissociation constant (Kd) of 55 nM.

B2: Sb1^DMT1 (sybody, synthetic nanobody selected against DMT1) (VHH)
VHH: B1 VHH
notes: Selected from synthetic nanobody (sybody) libraries; The sybody model PDB 7P5V was only the starting model for building Sb1, not Sb1 itself
Regarding B2, the Kd with human DMT1 (SLC11A2) [2] was about 50 nM.

B3: sybody Sb2^DMT1 (VHH)
VHH: QVQLVESGGGLVQAGGSLRLSCAASGFPVNAAWMHWYRQAPGKEREWVAAIRSAGHLTEYADSVKGRFTISRDNAKNTVYLQMNNLKPEDTAVYYCWVYVGESYHGQGTQVTVSA
notes: synthetic nanobody (sybody) selected against DMT1; the tags are surmised from the vector; Not resolved in the maps of PDB 9F6N and 9F6O
Consider B3, for which the Kd with human DMT1 (SLC11A2) [1] was 48 nM.
